Broadly, the Ki is a dissociation constant, usually derived from enzyme kinetics or from competition with a known ligand. A low value points to higher affinity.

Ends that are not written are not given here. Bounds are passed on as bounds.

The target of test [1] is T1, rat hypothalamic Y5 receptor (rat).
T1 sequence: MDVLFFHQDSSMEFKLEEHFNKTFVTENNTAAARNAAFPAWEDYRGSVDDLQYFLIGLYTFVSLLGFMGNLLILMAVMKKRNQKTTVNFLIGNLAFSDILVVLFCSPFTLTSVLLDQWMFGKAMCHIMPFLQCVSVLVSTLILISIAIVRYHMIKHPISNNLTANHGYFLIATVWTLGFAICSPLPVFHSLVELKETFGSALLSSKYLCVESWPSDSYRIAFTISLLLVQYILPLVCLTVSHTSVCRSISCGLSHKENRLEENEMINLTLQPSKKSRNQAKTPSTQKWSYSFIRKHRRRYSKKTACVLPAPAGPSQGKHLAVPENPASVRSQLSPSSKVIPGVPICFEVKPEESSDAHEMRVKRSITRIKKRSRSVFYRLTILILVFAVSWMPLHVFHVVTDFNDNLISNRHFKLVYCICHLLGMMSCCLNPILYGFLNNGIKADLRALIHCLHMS

Test [2] deals with T2, rat Y2 receptor (rat), Q9ERC0.
T2 chain: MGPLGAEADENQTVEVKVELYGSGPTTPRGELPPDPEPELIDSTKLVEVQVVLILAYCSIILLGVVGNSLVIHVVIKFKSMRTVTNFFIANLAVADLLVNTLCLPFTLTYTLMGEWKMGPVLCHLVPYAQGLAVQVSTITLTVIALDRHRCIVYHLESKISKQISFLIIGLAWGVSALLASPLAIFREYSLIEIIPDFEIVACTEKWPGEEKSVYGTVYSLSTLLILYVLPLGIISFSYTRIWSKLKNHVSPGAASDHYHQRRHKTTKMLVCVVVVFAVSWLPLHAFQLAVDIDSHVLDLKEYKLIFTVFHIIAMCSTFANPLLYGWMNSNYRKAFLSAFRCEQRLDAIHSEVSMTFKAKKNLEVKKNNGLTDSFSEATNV
As to the kind of experiment: 125I-PYY displacement, COS-7 membranes. To be noted: remark: other sources report otherwise.

Test [3] has as its target human hippocampal Y5 receptor (human).
Test [4] addresses T3, rat Y4 receptor (rat), Q63447.
T3 chain: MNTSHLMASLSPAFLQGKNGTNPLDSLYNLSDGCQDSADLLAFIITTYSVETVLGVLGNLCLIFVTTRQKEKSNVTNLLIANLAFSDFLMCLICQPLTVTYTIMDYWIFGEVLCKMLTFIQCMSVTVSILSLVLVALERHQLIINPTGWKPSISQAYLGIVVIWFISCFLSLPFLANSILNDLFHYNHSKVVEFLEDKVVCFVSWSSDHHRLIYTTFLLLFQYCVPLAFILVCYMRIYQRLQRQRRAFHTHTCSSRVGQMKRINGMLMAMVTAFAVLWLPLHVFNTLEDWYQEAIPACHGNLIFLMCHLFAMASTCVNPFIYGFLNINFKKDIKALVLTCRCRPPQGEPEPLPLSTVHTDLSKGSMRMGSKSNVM
As to the kind of experiment: 125I-PYY displacement, COS-7 membranes. The following applies: remark: other sources report otherwise.

The target of test [5] is T1, rat hypothalamic Y5 receptor (rat). This is another data set of the same source.

human hippocampal Y5 receptor (human), sequence (chain, as listed by the source): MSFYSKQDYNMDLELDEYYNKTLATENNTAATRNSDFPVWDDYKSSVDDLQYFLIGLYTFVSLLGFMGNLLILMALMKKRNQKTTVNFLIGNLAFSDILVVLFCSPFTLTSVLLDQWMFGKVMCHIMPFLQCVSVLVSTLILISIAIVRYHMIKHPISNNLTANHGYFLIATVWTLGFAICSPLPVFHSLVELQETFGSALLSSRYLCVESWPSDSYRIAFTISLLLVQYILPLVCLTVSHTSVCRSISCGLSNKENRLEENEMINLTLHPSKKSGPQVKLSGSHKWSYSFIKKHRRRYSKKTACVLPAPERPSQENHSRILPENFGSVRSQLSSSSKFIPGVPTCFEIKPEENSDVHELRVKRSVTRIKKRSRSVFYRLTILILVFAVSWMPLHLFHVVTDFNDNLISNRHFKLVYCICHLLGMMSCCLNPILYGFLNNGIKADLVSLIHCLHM

In test [1], APLEPMYPGDYATHEQRAQYETQLRRYINTLTRPRY [rat PP] showed an inhibition of forskolin-stimulated cAMP accumulation, EC50 of 130 nM.

In test [2], HYINLITRQRY (ends and bridges not checked) [porcine NPY26-36, P01304] returned a Ki of over 830 nM.

With APLEPEYPGDNATPEQMAQYAAELRRYINMLTRPRY [bovine PP], the inhibition of forskolin-stimulated cAMP accumulation, EC50 is 4 nM in test [3] and 5.7 nM in test [1].

Consider PAEDLARYYSALRHYINLITRQRY (ends and bridges not checked) [porcine NPY13-36, P01304], for which, in test [4], the inhibition constant Ki turned out to be 140 nM.

In turn, FLRF-NH2 [FLRF-amide] came in with an inhibition of forskolin-stimulated cAMP accumulation, EC50 in test [1] of 13000 nM. This molecule displayed a maximal suppression of cAMP relative to that produced by human NPY in test [5] of 42%.

The record behind these values is US20020103123A1.
